Laboratory results taken from US20260167699A1 (Chugai, published 2026).
One block for each binder: values may come before it.

Biological target: T1, FcγRIIIa extracellular domain, C-terminal His tag (human, UniProt P08637 17-208)
T1 construct: extracellular domain; also called 3a
Assay: SPR, binding activity relative to GpH7-A5/GpH7-B3/GpL16-k0 (=100)

T1 sequence (P08637 other isoform, or with tags, fused parts or gaps): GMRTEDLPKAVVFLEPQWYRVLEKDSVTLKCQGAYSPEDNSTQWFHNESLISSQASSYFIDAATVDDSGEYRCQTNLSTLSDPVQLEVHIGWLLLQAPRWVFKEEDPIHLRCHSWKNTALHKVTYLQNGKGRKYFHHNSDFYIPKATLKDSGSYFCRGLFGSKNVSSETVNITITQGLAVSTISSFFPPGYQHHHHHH

- He/Con 3a: 69.8%
B1: GpH7-A5/GpH7-B3 variant L234_14T/GpL16-k0 (antibody, human IgG1, kappa)
heavy 1: not shown
heavy 2: not shown
light: DIVMTQSPLSLPVTPGEPASISCQASESLVHSNRNTYLHWYLQKPGQSPQLLIYKVSNRFSGVPDRFSGSGSGTDFTLKISRVEAEDVGVYYCSQNTHVPPTFGQGTKVEIERTVAAPSVFIFPPSDEQLKSGTASVVCLLNNFYPREAKVQWKVDNALQSGNSQESVTEQDSKDSTYSLSSTLTLSKADYEKHKVYACEVTHQGLSSPVTKSFNRGEC
notes: He Ab; copies: 1 + 1 + 2

- He/Con 3a: 80.9%
B2: GpH7-A5/GpH7-B3 variant L328_03V/GpL16-k0 (antibody, human IgG1, kappa)
heavy 1: not shown
heavy 2: not shown
light: B1 light
notes: He Ab; copies: 1 + 1 + 2

- He/Con 3a: 83.4%
B3: GpH7-A5/GpH7-B3 variant L328_19Q/GpL16-k0 (antibody, human IgG1, kappa)
heavy 1: not shown
heavy 2: not shown
light: B1 light
notes: He Ab; copies: 1 + 1 + 2

- He/Con 3a: 56.7%
B4: GpH7-A5/GpH7-B3 variant L235_01G/GpL16-k0 (antibody, human IgG1, kappa)
heavy 1: not shown
heavy 2: not shown
light: B1 light
notes: He Ab; copies: 1 + 1 + 2

- He/Con 3a: 73.7%
B5: GpH7-A5/GpH7-B3 variant L328_13S/GpL16-k0 (antibody, human IgG1, kappa)
heavy 1: not shown
heavy 2: not shown
light: B1 light
notes: He Ab; copies: 1 + 1 + 2

- He/Con 3a: 100%
B6: GpH7-A5/GpH7-B3 variant P238_09D/GpL16-k0 (antibody, human IgG1, kappa)
heavy 1: not shown
heavy 2: not shown
light: B1 light
notes: He Ab; copies: 1 + 1 + 2

- He/Con 3a: 77.1%
B7: GpH7-A5/GpH7-B3 variant L234_19Q/GpL16-k0 (antibody, human IgG1, kappa)
heavy 1: not shown
heavy 2: not shown
light: B1 light
notes: He Ab; copies: 1 + 1 + 2

- He/Con 3a: 73.8%
B8: GpH7-A5/GpH7-B3 variant L235_20W/GpL16-k0 (antibody, human IgG1, kappa)
heavy 1: not shown
heavy 2: not shown
light: B1 light
notes: He Ab; copies: 1 + 1 + 2

- He/Con 3a: 70.2%
B9: GpH7-A5/GpH7-B3 variant L328_15Y/GpL16-k0 (antibody, human IgG1, kappa)
heavy 1: not shown
heavy 2: not shown
light: B1 light
notes: He Ab; copies: 1 + 1 + 2

- He/Con 3a: 72%
B10: GpH7-A5/GpH7-B3 variant L235_02A/GpL16-k0 (antibody, human IgG1, kappa)
heavy 1: not shown
heavy 2: not shown
light: B1 light
notes: He Ab; copies: 1 + 1 + 2

- He/Con 3a: 53%
B11: GpH7-A5/GpH7-B3 variant N325_09D/GpL16-k0 (antibody, human IgG1, kappa)
heavy 1: not shown
heavy 2: not shown
light: B1 light
notes: He Ab; copies: 1 + 1 + 2

- He/Con 3a: 71.3%
B12: GpH7-A5/GpH7-B3 variant P238_08L/GpL16-k0 (antibody, human IgG1, kappa)
heavy 1: not shown
heavy 2: not shown
light: B1 light
notes: He Ab; copies: 1 + 1 + 2

- He/Con 3a: 81.3%
B13: GpH7-A5/GpH7-B3 variant L328_02A/GpL16-k0 (antibody, human IgG1, kappa)
heavy 1: not shown
heavy 2: not shown
light: B1 light
notes: He Ab; copies: 1 + 1 + 2

- He/Con 3a: 88.2%
B14: GpH7-A5/GpH7-B3 variant L234_18N/GpL16-k0 (antibody, human IgG1, kappa)
heavy 1: not shown
heavy 2: not shown
light: B1 light
notes: He Ab; copies: 1 + 1 + 2

- He/Con 3a: 80.8%
B15: GpH7-A5/GpH7-B3 variant L328_06M/GpL16-k0 (antibody, human IgG1, kappa)
heavy 1: not shown
heavy 2: not shown
light: B1 light
notes: He Ab; copies: 1 + 1 + 2

- He/Con 3a: 85.6%
B16: GpH7-A5/GpH7-B3 variant L235_10E/GpL16-k0 (antibody, human IgG1, kappa)
heavy 1: not shown
heavy 2: not shown
light: B1 light
notes: He Ab; copies: 1 + 1 + 2

- He/Con 3a: 75.6%
B17: GpH7-A5/GpH7-B3 variant L235_06M/GpL16-k0 (antibody, human IgG1, kappa)
heavy 1: not shown
heavy 2: not shown
light: B1 light
notes: He Ab; copies: 1 + 1 + 2

- He/Con 3a: 55.9%
B18: GpH7-A5/GpH7-B3 variant L328_16H/GpL16-k0 (antibody, human IgG1, kappa)
heavy 1: not shown
heavy 2: not shown
light: B1 light
notes: He Ab; copies: 1 + 1 + 2

- He/Con 3a: 88.5%
B19: GpH7-A5/GpH7-B3 variant L235_09D/GpL16-k0 (antibody, human IgG1, kappa)
heavy 1: not shown
heavy 2: not shown
light: B1 light
notes: He Ab; copies: 1 + 1 + 2

- He/Con 3a: 51.1%
B20: GpH7-A5/GpH7-B3 variant L328_18N/GpL16-k0 (antibody, human IgG1, kappa)
heavy 1: not shown
heavy 2: not shown
light: B1 light
notes: He Ab; copies: 1 + 1 + 2

- He/Con 3a: 98.9%
B21: GpH7-A5/GpH7-B3 variant P238_10E/GpL16-k0 (antibody, human IgG1, kappa)
heavy 1: not shown
heavy 2: not shown
light: B1 light
notes: He Ab; copies: 1 + 1 + 2

- He/Con 3a: 77.4%
B22: GpH7-A5/GpH7-B3 variant L328_14T/GpL16-k0 (antibody, human IgG1, kappa)
heavy 1: not shown
heavy 2: not shown
light: B1 light
notes: He Ab; copies: 1 + 1 + 2

- He/Con 3a: 94.6%
B23: GpH7-A5/GpH7-B3 variant L235_03V/GpL16-k0 (antibody, human IgG1, kappa)
heavy 1: not shown
heavy 2: not shown
light: B1 light
notes: He Ab; copies: 1 + 1 + 2

- He/Con 3a: 76.8%
B24: GpH7-A5/GpH7-B3 variant L234_16H/GpL16-k0 (antibody, human IgG1, kappa)
heavy 1: not shown
heavy 2: not shown
light: B1 light
notes: He Ab; copies: 1 + 1 + 2

- He/Con 3a: 92.8%
B25: GpH7-A5/GpH7-B3 variant L235_07I/GpL16-k0 (antibody, human IgG1, kappa)
heavy 1: not shown
heavy 2: not shown
light: B1 light
notes: He Ab; copies: 1 + 1 + 2

- He/Con 3a: 83.7%
B26: GpH7-A5/GpH7-B3 variant P271_02A/GpL16-k0 (antibody, human IgG1, kappa)
heavy 1: not shown
heavy 2: not shown
light: B1 light
notes: He Ab; copies: 1 + 1 + 2

- He/Con 3a: 67.2%
B27: GpH7-A5/GpH7-B3 variant L235_13S/GpL16-k0 (antibody, human IgG1, kappa)
heavy 1: not shown
heavy 2: not shown
light: B1 light
notes: He Ab; copies: 1 + 1 + 2

- He/Con 3a: 68.6%
B28: GpH7-A5/GpH7-B3 variant L235_05P/GpL16-k0 (antibody, human IgG1, kappa)
heavy 1: not shown
heavy 2: not shown
light: B1 light
notes: He Ab; copies: 1 + 1 + 2

- He/Con 3a: 119%
B29: GpH7-A5/GpH7-B3 variant P271_01G/GpL16-k0 (antibody, human IgG1, kappa)
heavy 1: not shown
heavy 2: not shown
light: B1 light
notes: He Ab; copies: 1 + 1 + 2

- He/Con 3a: 126%
B30: GpH7-A5/GpH7-B3 variant L234_15Y/GpL16-k0 (antibody, human IgG1, kappa)
heavy 1: not shown
heavy 2: not shown
light: B1 light
notes: He Ab; copies: 1 + 1 + 2

- He/Con 3a: 76.4%
B31: GpH7-A5/GpH7-B3 variant L235_04F/GpL16-k0 (antibody, human IgG1, kappa)
heavy 1: not shown
heavy 2: not shown
light: B1 light
notes: He Ab; copies: 1 + 1 + 2

- He/Con 3a: 68%
B32: GpH7-A5/GpH7-B3 variant N325_16H/GpL16-k0 (antibody, human IgG1, kappa)
heavy 1: not shown
heavy 2: not shown
light: B1 light
notes: He Ab; copies: 1 + 1 + 2

- He/Con 3a: 61%
B33: GpH7-A5/GpH7-B3 variant P238_15Y/GpL16-k0 (antibody, human IgG1, kappa)
heavy 1: not shown
heavy 2: not shown
light: B1 light
notes: He Ab; copies: 1 + 1 + 2

- He/Con 3a: 103%
B34: GpH7-A5/GpH7-B3 variant L234_20W/GpL16-k0 (antibody, human IgG1, kappa)
heavy 1: not shown
heavy 2: not shown
light: B1 light
notes: He Ab; copies: 1 + 1 + 2

- He/Con 3a: 73.5%
B35: GpH7-A5/GpH7-B3 variant P271_03V/GpL16-k0 (antibody, human IgG1, kappa)
heavy 1: not shown
heavy 2: not shown
light: B1 light
notes: He Ab; copies: 1 + 1 + 2

- He/Con 3a: 68.1%
B36: GpH7-A5/GpH7-B3 variant L235_19Q/GpL16-k0 (antibody, human IgG1, kappa)
heavy 1: not shown
heavy 2: not shown
light: B1 light
notes: He Ab; copies: 1 + 1 + 2

- He/Con 3a: 71.9%
B37: GpH7-A5/GpH7-B3 variant N325_13S/GpL16-k0 (antibody, human IgG1, kappa)
heavy 1: not shown
heavy 2: not shown
light: B1 light
notes: He Ab; copies: 1 + 1 + 2

- He/Con 3a: 86.4%
B38: GpH7-A5/GpH7-B3 variant L328_07I/GpL16-k0 (antibody, human IgG1, kappa)
heavy 1: not shown
heavy 2: not shown
light: B1 light
notes: He Ab; copies: 1 + 1 + 2

- He/Con 3a: 65%
B39: GpH7-A5/GpH7-B3 variant L235_18N/GpL16-k0 (antibody, human IgG1, kappa)
heavy 1: not shown
heavy 2: not shown
light: B1 light
notes: He Ab; copies: 1 + 1 + 2

- He/Con 3a: 81.5%
B40: GpH7-A5/GpH7-B3 variant L328_04F/GpL16-k0 (antibody, human IgG1, kappa)
heavy 1: not shown
heavy 2: not shown
light: B1 light
notes: He Ab; copies: 1 + 1 + 2

- He/Con 3a: 52.7%
B41: GpH7-A5/GpH7-B3 variant P238_19Q/GpL16-k0 (antibody, human IgG1, kappa)
heavy 1: not shown
heavy 2: not shown
light: B1 light
notes: He Ab; copies: 1 + 1 + 2

- He/Con 3a: 73.2%
B42: GpH7-A5/GpH7-B3 variant L235_14T/GpL16-k0 (antibody, human IgG1, kappa)
heavy 1: not shown
heavy 2: not shown
light: B1 light
notes: He Ab; copies: 1 + 1 + 2

- He/Con 3a: 57.1%
B43: GpH7-A5/GpH7-B3 variant L235_16H/GpL16-k0 (antibody, human IgG1, kappa)
heavy 1: not shown
heavy 2: not shown
light: B1 light
notes: He Ab; copies: 1 + 1 + 2

- He/Con 3a: 77.8%
B44: GpH7-A5/GpH7-B3 variant L235_15Y/GpL16-k0 (antibody, human IgG1, kappa)
heavy 1: not shown
heavy 2: not shown
light: B1 light
notes: He Ab; copies: 1 + 1 + 2
